Measurements as given in patent US20160137714A1 (Thrasos Innovation, Inc., priority 2014, published 2016).
Positions of bridges follow the written chain, without caps; N, C: chain ends. Non-standard residues stand in square brackets, D forms with d. Residues, ends and D or L forms follow the SMILES beside them. No end group written: not given here. *: point of attachment. Hydrocinnamoyl = O=C(CCc1ccccc1)*; Pyrazinecarbonyl = O=C(c1cnccn1)*; dNMeR = CN[C@H](CCCNC(=N)N)C(=O)O

assay: FIGURE 31 (1/2)
Description: Table printed on a drawing sheet, FIGURE 31 (1/2)
Peptide to internal standard peak area ratios were used calculate percentage remaining peptide at 60 minutes and 120 minutes. Peptides are identified by GPR number (GPR#) and SEQ ID NO.
First reader's note: First of two sheets of FIGURE 31; the table continues on sheet 2/2, and the meaning of the asterisks is not printed on this sheet.

Compound	% Remaining at 60 and 120 minutes | 60	% Remaining at 60 and 120 minutes | 120
CC(C)C[C@@H]1NC(=O)[C@H](C(C)C)NC(=O)[C@H](CC(N)=O)NC(=O)[C@H](CO)NC(=O)[C@H](CO)NC(=O)[C@H](CC(=O)O)NC(=O)[C@H](CC(=O)O)NC(=O)[C@H](Cc2ccccc2)NC(=O)[C@H](Cc2ccc(O)cc2)NC(=O)[C@@H](NC(=O)CCc2ccccc2)CSSC[C@@H](C(=O)N[C@@H](CCCCN)C(=O)N[C@@H](CCCCN)C(=O)N[C@@H](Cc2ccc(O)cc2)C(=O)N[C@@H](CCCNC(=N)N)C(=O)N[C@@H](CO)C(=O)O)NC1=O [SEQ ID NO:31, [N-terminal: Phenyl-CH2-CH2-CO-]Cys-Tyr-Phe-Asp-Asp-Ser-Ser-Asn-Val-Leu-Cys-Lys-Lys-Tyr-Arg-Ser] (Hydrocinnamoyl-CYFDDSSNVLCKKYRS-OH; disulfide 1-11)	26.6%	11.8%
Cys-Tyr-Phe-Nal-Asp-Ser-Ser-Asn-Val-Leu-Cys-Lys-Lys-(D)Tyr-Arg-Ser (CYF[Nal]DSSNVLCKK[dY]RS-OH; disulfide 1-11 (inferred)) [SEQ ID NO:48]	93.33%	97.49%
Cys-Tyr-Phe-Asp-Asp-Ser-Ser-Asn-Thr-Leu-Cys-Lys-Lys-Tyr-(Me)(D)Arg-Ser (CYFDDSSNTLCKKY[dNMeR]S-OH; disulfide 1-11 (inferred)) [SEQ ID NO:40]	106.0%	99.2%
Cys-Tyr-Tyr-Phe-Ser-Ser-Ser-Phe-Val-Leu-Cys-Lys-Arg-Tyr-(Me)(D)Arg-Ser (CYYFSSSFVLCKRY[dNMeR]S-OH; disulfide 1-11 (inferred)) [SEQ ID NO:44]	74.3%	57.5%
Cys-Tyr-Phe-Asp-Asp-Asn-Ser-Asn-Val-Leu-Cys-Arg-Lys-Tyr-(Me)(D)Arg-Ser (CYFDDNSNVLCRKY[dNMeR]S-OH; disulfide 1-11 (inferred)) [SEQ ID NO:38]	90.4%	84.2%
[N-terminal: Pirazinyl-CO-]Cys-Tyr-Phe-Asp-Asp-Ser-Ser-Asn-Val-Leu-Cys-Lys-Lys-(D)Tyr-Arg-Ser (Pyrazinecarbonyl-CYFDDSSNVLCKK[dY]RS-OH; disulfide 1-11 (inferred)) [SEQ ID NO:34]	66.2%	78.7%
Cys-Tyr-Phe-Asp-Asp-Ser-Ser-Asn-Ala-Leu-Cys-Lys-Lys-Tyr-(Me)(D)Arg-Ser (CYFDDSSNALCKKY[dNMeR]S-OH; disulfide 1-11 (inferred)) [SEQ ID NO:42]	100.0%	94.0%
Cys-Tyr-Phe-Nal-Asp-Ser-Ser-Asn-Val-Leu-Cys-Lys-Lys-Tyr-Arg-Ser (CYF[Nal]DSSNVLCKKYRS-OH; disulfide 1-11 (inferred)) [SEQ ID NO:47]	9.0%	8.2%
CC(C)C[C@@H]1NC(=O)[C@H](C(C)C)NC(=O)[C@H](CC(N)=O)NC(=O)[C@H](CO)NC(=O)[C@H](CO)NC(=O)[C@H](CC(=O)O)NC(=O)[C@H](CC(=O)O)NC(=O)[C@H](Cc2ccccc2)NC(=O)[C@H](Cc2ccc(O)cc2)NC(=O)[C@@H](NC(=O)CCc2ccccc2)CSSC[C@@H](C(=O)N[C@@H](CCCCN)C(=O)N[C@@H](CCCCN)C(=O)N[C@H](Cc2ccc(O)cc2)C(=O)N[C@@H](CCCNC(=N)N)C(=O)N[C@@H](CO)C(=O)O)NC1=O [SEQ ID NO:32, [N-terminal: Phenyl-CH2-CH2-CO-]Cys-Tyr-Phe-Asp-Asp-Ser-Ser-Asn-Val-Leu-Cys-Lys-Lys-(D)Tyr-Arg-Ser] (Hydrocinnamoyl-CYFDDSSNVLCKK[dY]RS-OH; disulfide 1-11)	82.0%	91.0%
CYFDDSSNVKCKK[dA]RS (cysteine pairing not given here) [SEQ ID NO:28]	75.3%	90.2%
[N-terminal: Pirazinyl-CO-]Cys-Tyr-Phe-Asp-Asp-Ser-Ser-Asn-Val-Leu-Cys-Lys-Lys-Tyr-Arg-Ser (Pyrazinecarbonyl-CYFDDSSNVLCKKYRS-OH; disulfide 1-11 (inferred)) [SEQ ID NO:33]	44.3%	23.6%
